3 molecules from publication PMC6763467, “Structural insight into glucose repression of the mannitol operon” (Scientific Reports, 2019) can be followed below.

B1: E. coli MtlR fused with His6-tag (ecHisMtlR), wild type (natural protein)
chain: MVDQAQDTLRPNNRLSDMQATMEQTQAFENRVLERLNAGKTVRSFLITAVELLTEAVNLLVLQVFRKDDYAVKYAVEPLLDGDGPLGDLSVRLKLIYGLGVINRQEYEDAELLMALREELNHDGNEYAFTDDEILGPFGELHCVAALPPPPQFEPADSSLYAMQIQRYQQAVRSTMVLSLTELISKISLKKAFQK
notes: Mannitol operon repressor MtlR of E. coli (cloned from genomic DNA of MG1655, K-12); ecHisMtlR is about 23 kDa with the tag; probably the whole protein (about 23 kDa with tag); Homodimer by SEC-MALS; also called wild-type His-MtlR; ecMtlR
B2: E. coli HPr labelled with the dye NT-647 (natural protein)
chain: not shown
modifications: dye NT-647 coupled by N-hydroxysuccinimide (NHS) to lysine residues
notes: Histidine phosphocarrier protein HPr of E. coli, 9 kDa; Same protein as m2, fluorescently labelled for microscale thermophoresis; also called labeled HPr; source: E. coli, overexpressed, purified (MonoQ, Superdex 75), then labelled with NT-647-NHS
B3: E. coli histidine phosphocarrier protein HPr (dephosphorylated, untagged) (natural protein)
chain: not shown
notes: Histidine phosphocarrier protein HPr of E. coli, 9 kDa; Untagged; probably the whole protein (9 kDa); also called ecHPr; source: E. coli, overexpressed, purified (MonoQ, Superdex 75); for the complex overexpressed in E. coli GI698 harboring pSP100 and co-purified with MtlR

Changes are numbered by the printed parent chain.

Data set [1] deals with the molecule itself. The data set can be described thus: SEC-MALS; Superdex 200 increase 5/150 GL, binding buffer as mobile phase, 0.2 ml/min; HisMtlR alone (40 μg) and in complex with HPr (60 μg); concentration by refractive index.
Data set [2] addresses T1, His-MtlR(E140S) (E. coli, UniProt P0AF10 1-195, E140S).
T1 construct: Mannitol operon repressor MtlR of E. coli, made by site-directed mutagenesis of pET-HisMtlR; also called E140S single mutant
T1 sequence: B1 chain with E140S
As to the kind of experiment: MST; Monolith NT.115; serial dilutions of MtlR variants mixed 1:1 with NT-647-labelled HPr; 20 mM Tris-HCl pH 7.5, 50 mM NaCl, 2 mM β-mercaptoethanol, 0.05% BSA, 0.05% Tween-20, 5% glycerol. The settings on record: both partners purified.

The target in data set [3] is T2, His-MtlR(E108S) (E. coli, UniProt P0AF10 1-195, E108S).
T2 construct: Mannitol operon repressor MtlR of E. coli, made by site-directed mutagenesis of pET-HisMtlR; also called E108S single mutant
T2 sequence: B1 chain with E108S
The data set is described as above. The following applies: both partners purified.

Data set [4] addresses B1. The data set is described as above. The settings on record: both partners purified.
Data set [5] deals with B1. The data set can be described thus: SEC; gel filtration chromatography of purified MtlR and HPr from E. coli and V. vulnificus (Supplementary Fig. 4). The following applies: both partners purified.
The target in data set [6] is T1, His-MtlR(E140S). As to the kind of experiment: pull-down; His-MtlR (200 μg) mixed with HPr (200 μg) in 20 mM Tris-HCl pH 7.5, 50 mM NaCl, 2 mM β-mercaptoethanol, 5% glycerol; Talon metal affinity chromatography, 3 washes with 10 mM imidazole, elution with 150 mM imidazole; SDS-PAGE, Coomassie. The following applies: both partners purified.
Data set [7] concerns the target T3, His-MtlR(A115W) (E. coli, UniProt P0AF10 1-195, A115W).
T3 construct: Mannitol operon repressor MtlR of E. coli, made by site-directed mutagenesis of pET-HisMtlR; also called A115W mutant of His-tagged ecMtlR
T3 sequence: B1 chain with A115W
The data set is described as above. The settings on record: both partners purified.

Data set [8] addresses T4, His-MtlR(L112W) (E. coli, UniProt P0AF10 1-195, Leu112 was mutated to Trp).
T4 construct: Mannitol operon repressor MtlR of E. coli, made by site-directed mutagenesis of pET-HisMtlR; also called Leu112 mutated to Trp
T4 sequence: B1 chain with L112W
The description is as above. The settings on record: both partners purified.

In data set [9] the target is T2, His-MtlR(E108S). The data set can be described thus: pull-down; His-MtlR (200 μg) mixed with 20 μl of EI-overproducing cell lysate, 200 μg of HPr, 2 mM MgCl2 and 50 μl of Talon resin, in the absence or presence of 2 mM PEP; SDS-PAGE, Coomassie. The settings on record: both partners purified.

For the molecule B1, the “stoichiometry N” value in [1] is 2.
Take B2: the Kd in data set [2] was 1530 ± 110 nM; in data set [3], 1420 ± 80 nM; in data set [4] it was approximately 21 nM.
In the case of B3, the binding result in data set [5], in data set [6], in [7], in data set [8] and in data set [9] was “binds” throughout.
